From patent US12103951B2, “Use of CGRP receptor antagonists in neuroprotection and neurological disorders” (priority 2016, dated 2024)
Where two headings read alike, the source gives them in different places. Marks after values point to notes of the source that are not given here.

Columns and labels:
[1] = tested on: retinal ganglion cell (RGC); assay: Rat laser glaucoma model: number of RGCs (Brn3a positive cells) in retinal whole mounts; assay type: in vivo, Wistar rats
Description: In this study, Wistar rats (n=12) were used for the experiments. The neuroprotective properties of compounds were investigated in a rat laser model of glaucoma. Rats were divided into two groups of six rats each. One group served as a placebo control receiving vehicle (NaCl) injections, and the other was treated with a peptide CGRP receptor antagonist (SEQ ID NO: 1). For all 12 rats, the contralateral, untreated eye served as a naïve undiseased control. The vehicle control and test compound (20 mg/kg) were administered systemically (IP) daily for the whole follow-up period of two weeks. The animals were sacrificed using transcardial perfusion. […] The number of Brn3a positive profiles was manually counted from retinal images taken from central and peripheral parts of retina. […]
1. Quantification of Brn3a and GFAP-positive cells from retinal whole mounts manually and using stereology. […]
Retinal whole mounts were immuno-stained against RGC (Brn3a) and astrocytic (GFAP) antibodies and the number of cells was quantified either manually (Brn3a) or as previously described (Kalesnykas et al., 2008).
The retinas were immuno-stained against RGC specific antibody Brn3a, retinas were imaged and Brn3a positive profiles were counted manually using Image J software (NIH, Bethesda, Maryland, USA). […]

retinal astrocytes = assay: Rat laser glaucoma model: total number of GFAP-immunoreactive cells (retinal astrocytes); assay type: in vivo, Wistar rats; conditions: between the groups (CGRP antagonist vs vehicle)
Description: In this study, Wistar rats (n=12) were used for the experiments. The neuroprotective properties of compounds were investigated in a rat laser model of glaucoma. Rats were divided into two groups of six rats each. One group served as a placebo control receiving vehicle (NaCl) injections, and the other was treated with a peptide CGRP receptor antagonist (SEQ ID NO: 1). For all 12 rats, the contralateral, untreated eye served as a naïve undiseased control. The vehicle control and test compound (20 mg/kg) were administered systemically (IP) daily for the whole follow-up period of two weeks. The animals were sacrificed using transcardial perfusion. The retinal whole-mounts were then immuno-stained against retinal ganglion cell (RGC) marker Brn3a and astrocytic marker GFAP (glial fibrillary acidic protein). The number of Brn3a positive profiles was manually counted from retinal images taken from central and peripheral parts of retina. The total number of GFAP-immunoreactive cells (retinal astrocytes) was estimated using stereology. […]
1. Quantification of Brn3a and GFAP-positive cells from retinal whole mounts manually and using stereology.
Retinal whole mounts were immuno-stained against RGC (Brn3a) and astrocytic (GFAP) antibodies and the number of cells was quantified either manually (Brn3a) or as previously described (Kalesnykas et al., 2008). […]

[2] = tested on: Total Cholesterol, Triglycerides, Low-density lipoprotein and High-density lipoprotein; assay type: in vivo, Sprague Dawley rats; set-up: HDL / LDL: unit not given here; conditions: for HDL / LDL / T. Chol / Trig: mean, n = 5; for effect on LDL levels in rats (words): normal rats, s.c. daily 14 days, especially male rats, every test dose 100 to 1000 mcg/kg
Description: Sprague Dawley rats were administered the CGRP antagonist daily via the subcutaneous route for a period of 14 days, resulting in the surprising effect of LDL lowering. Fifty six animals (36 males and 20 females) were distributed into four groups (consisting each of 5 males and 5 females per group and 4 extra males each for testing group as backups). The groups were as follows: G1—Control, G2—Low dose—100 mcg/kg, G3—Intermediate dose—300 mcg/kg, G4—High dose—1000 mcg/kg.
Rats from the treatment groups were dosed subcutaneously with CGRP receptor antagonists (SEQ ID NO: 1) reconstituted with normal saline at different dose levels per treatment group for 14 days. Control animals were dosed with the vehicle alone.
The acclimatization period was, at a minimum, 7 days. For the randomization, animals were selected and grouped based on stratified randomization by using body weights one day before dosing (day 0) using an Excel program. The route of administration of the antagonist was by a subcutaneous method. The frequency of the administration was daily for fourteen days. The dose volume was set at 5 ml/kg of body weight. The duration of the treatment was fourteen days with administration occurring approximately at the same time each day.
While preparing the dose formulation, required quantities of test item (i.e. CGRP antagonist) was weighed separately. The required volume of normal saline was added to the test item. A clear solution was obtained after addition of normal saline to test item. The test item was administered subcutaneously at the desired dose level once daily for up to 14 days. Homogeneity of the test item in the vehicle was maintained during administration.
The following observations were recorded: • 1. […] Body Weight • Body weight was recorded on day 1, 7, 11 and 15. • 3. Feed Consumption • Feed consumption was recorded daily and reported weekly. • 4. Blood Collection and Laboratory Investigations • Blood samples for were collected from all animals on day 15. The animals were fasted overnight before blood sampling but allowed access to water ad libitum for hematology and biochemistry. Blood samples were drawn from the retro-orbital plexus using a micro-hematocrit heparinized glass capillary tube. Blood samples were centrifuged (3500 rpm) and after centrifugation plasma was separated for further analysis.
Total Cholesterol, Triglycerides, Low-density lipoprotein and High-density lipoprotein parameters are shown in Tables 4 and 5, for male and female rats, respectively. Data from the LDL analysis is shaded.

[3] = female rats, 100 mcg/kg b.w. s.c. daily 14 days, day 15
[4] = female rats, 300 mcg/kg b.w. s.c. daily 14 days, day 15
[5] = female rats, 1000 mcg/kg b.w. s.c. daily 14 days, day 15
[6] = male rats, 100 mcg/kg b.w. s.c. daily 14 days, day 15
[7] = male rats, 300 mcg/kg b.w. s.c. daily 14 days, day 15
[8] = male rats, 1000 mcg/kg b.w. s.c. daily 14 days, day 15

NH2-Ala-Cys-Asp-Thr-Ala-Ala-Cys-Val-Leu-Gly-Arg-Leu-Ser-Gln-Glu-Leu-His-Arg-Leu-Gln-Thr-Tyr-Pro-Arg-Thr-Asn-Val-Gly-Ser-Lys-Ala-Phe-NH2 (H-ACDTAACVLGRLSQELHRLQTYPRTNVGSKAF-NH2; ends and bridges not checked) [SEQ ID NO: 1, peptide CGRP receptor antagonist]
number of Brn3a positive cells, increase in lasered eyes vs contralateral control eyes ([1]; IP daily for two weeks, increase, P=0.43): 3.0%
neuroprotection at cellular and optic nerve axon levels ([1]; rat glaucoma model, systemic administration): showed neuroprotection
total number of retinal astrocytes (retinal astrocytes): no differences
other non-cholesterol related clinical biochemistry parameters ([2]; day 15, vs control, data not shown): none were significantly different from control
HDL [2, 3]: 59.00
LDL [2, 3]: 11.08
T. Chol [2, 3]: 84.20 mg/dL
Trig [2, 3]: 70.60 mg/dL
HDL [2, 4]: 61.60
LDL [2, 4]: 12.60
T. Chol [2, 4]: 91.00 mg/dL
Trig [2, 4]: 84.00 mg/dL
HDL [2, 5]: 54.80
LDL [2, 5]: 9.40
T. Chol [2, 5]: 80.60 mg/dL
Trig [2, 5]: 82.00 mg/dL
HDL [2, 6]: 51.60
LDL [2, 6]: 2.96
T. Chol [2, 6]: 78.00 mg/dL
Trig [2, 6]: 121.40* mg/dL
HDL [2, 7]: 46.00
LDL [2, 7]: 4.16
T. Chol [2, 7]: 69.60 mg/dL
Trig [2, 7]: 97.20 mg/dL
HDL [2, 8]: 37.00
LDL [2, 8]: 4.72
T. Chol [2, 8]: 58.20 mg/dL
Trig [2, 8]: 82.40 mg/dL
effect on LDL levels in rats (words) [2]: lowered LDL concentrations in blood
effect on LDL levels in rats (words) ([2]; listed as CGRP antagonist): LDL lowering
effect on LDL levels in rats (words) ([2]; listed as CGRP receptor antagonist): substantial LDL lowering
effect on LDL levels in rats (words) ([2]; listed as peptide CGRP antagonist): lowering the LDL levels
